Test results published in PMC11765556, “Cytosine Methylation Changes the Preferred Cis-Regulatory Configuration of Arabidopsis WUSCHEL-Related Homeobox 14”.

T1: AtWOX14 (monomer) (Arabidopsis thaliana, UniProt Q9LM84 1-211)
T1 sequence: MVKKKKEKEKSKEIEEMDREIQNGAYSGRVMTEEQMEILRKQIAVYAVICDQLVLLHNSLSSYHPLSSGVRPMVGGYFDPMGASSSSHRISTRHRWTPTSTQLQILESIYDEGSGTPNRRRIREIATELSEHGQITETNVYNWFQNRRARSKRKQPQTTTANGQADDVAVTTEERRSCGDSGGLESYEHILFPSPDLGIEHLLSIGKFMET

T2: AtWOX14 (homodimer on DNA) (Arabidopsis thaliana, UniProt Q9LM84 1-211)
T2 sequence: T1 sequence

B1: M1 (dsDNA)
DNA 1: ATGCTAGCTCCATCTGTATTGATTGTTTATGGCGGTGACGTACT
DNA 2: AGTACGTCACCGCCATAAACAATCAATACAGATGGAGCTAGCAT
B2: ER0 (dsDNA)
DNA 1: ATGCTAGCTCCATCTGTGATTGCAATCAATGGCGGTGACGTACT
DNA 2: AGTACGTCACCGCCATTGATTGCAATCACAGATGGAGCTAGCAT
B3: ER0-AT1G15640 (dsDNA)
DNA 1: AATAAGATGTACCCAATGATTGCAATGATGAGCCCAATGAGTGC
DNA 2: GCACTCATTGGGCTCATCATTGCAATCATTGGGTACATCTTATT
B4: ER1 (dsDNA)
DNA 1: ATGCTAGCTCCATCTGTGATTGACAATCAATGGCGGTGACGTACT
DNA 2: AGTACGTCACCGCCATTGATTGTCAATCACAGATGGAGCTAGCAT

Columns and labels:
AtWOX14 (monomer) = target: T1, AtWOX14 (monomer); assay: EMSA; 50-200 nM WOX14; monomeric shift; EMSA: 10 mM Tris (pH not stated), 50 mM NaCl, 1 mM MgCl2, 4% glycerol, 0.5 mM EDTA, 25 C 40 min, 30 ng probe in 20 uL; 6% native PAGE, 0.5x TBE, 4 C; details: protein: recombinant; tags: N-terminal His (pETG20A-His)
[1] = target: T2, AtWOX14 (homodimer on DNA); assay: EMSA; 50-200 nM WOX14; dimeric shift at high protein; EMSA: 10 mM Tris (pH not stated), 50 mM NaCl, 1 mM MgCl2, 4% glycerol, 0.5 mM EDTA, 25 C 40 min, 30 ng probe in 20 uL; 6% native PAGE, 0.5x TBE, 4 C; details: protein: recombinant; tags: N-terminal His (pETG20A-His); chain copies: 2
[2] = target: T2, AtWOX14 (homodimer on DNA); assay: EMSA; 25-200 nM WOX14; dimeric shift; EMSA: 10 mM Tris (pH not stated), 50 mM NaCl, 1 mM MgCl2, 4% glycerol, 0.5 mM EDTA, 25 C 40 min, 30 ng probe in 20 uL; 6% native PAGE, 0.5x TBE, 4 C; details: protein: recombinant; tags: N-terminal His (pETG20A-His); chain copies: 2

Binder | binding result (AtWOX14 (monomer)) | binding result [1] | binding result [2]
B1 | binds | – | –
B2 | binds | binds | –
B3 | – | – | binds
B4 | binds | binds | –
